The values that follow come from patent US20150253341A1 (Merck Sharp & Dohme, published 2015).

This test addresses human Tau protein (human, UniProt P10636-8 1-441, limits assumed). Put plainly: method not stated.

Sequence of human Tau protein (P10636 other isoform, or with tags, fused parts or gaps limits assumed): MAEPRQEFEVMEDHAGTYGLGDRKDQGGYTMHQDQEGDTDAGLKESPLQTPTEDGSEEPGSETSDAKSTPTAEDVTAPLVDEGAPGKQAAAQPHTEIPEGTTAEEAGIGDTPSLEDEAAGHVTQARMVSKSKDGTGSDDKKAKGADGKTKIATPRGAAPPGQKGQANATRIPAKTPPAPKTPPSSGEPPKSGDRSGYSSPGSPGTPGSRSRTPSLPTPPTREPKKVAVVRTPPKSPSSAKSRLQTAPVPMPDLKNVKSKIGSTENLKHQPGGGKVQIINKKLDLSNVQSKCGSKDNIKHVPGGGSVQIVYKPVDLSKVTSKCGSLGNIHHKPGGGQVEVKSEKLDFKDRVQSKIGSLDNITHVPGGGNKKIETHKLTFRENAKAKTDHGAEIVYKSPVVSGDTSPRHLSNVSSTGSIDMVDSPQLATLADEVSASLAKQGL

B1: mouse monoclonal anti-Tau antibody clone 13A6 (antibody, V domains shown)
VH: EVQLQQSGAELVRPGASVKLPCTASGFNIKDDYMNWVMQRPERGLEWIGWIDPENGDTAYASKFQGKATMTADTSSNTAYLQLSSLTSEDTAVYYCTSGGRFDYWGQGTSLTVSS
VL: DVLMTQTPLSLPVSLGDQASISCRSSQSIVHSNGSTYLEWYLQKPGQSPKLLIYKVSNRFSGVPDRFSGSGSGTDFTLKINRVEAEDLGVYYCFQGSHVPWTFGGGTKLEIK
notes: Mouse monoclonal from a hybridoma; also called mAb 13A6; antibody 13A6
B1 came in with a Kd of 9.7 nM.
